Assay results published in publication PMC3954913 (Molecular microbiology, 2014).

Target: T1, pallilysin (Tp0751_C24-P237) (Treponema pallidum, UniProt O83732 24-237)
T1 sequence (looked up): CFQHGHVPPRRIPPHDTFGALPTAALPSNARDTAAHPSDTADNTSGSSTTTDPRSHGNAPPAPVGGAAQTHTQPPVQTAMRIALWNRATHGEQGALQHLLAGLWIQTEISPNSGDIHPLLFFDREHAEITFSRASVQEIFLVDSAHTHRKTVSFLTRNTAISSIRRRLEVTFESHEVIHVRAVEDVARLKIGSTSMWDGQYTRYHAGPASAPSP
Test: dynamic light scattering

B1: recombinant Tp0750_G23-D223 (natural protein, UniProt O83731 23-223, looked up)
chain: GERTVPVDIFLMIDKSRSMQEPGKFSSLHRWVRDEFVSSMTIQGDWITVYQFYEKPEELITLTLRSEQDRDKIISVVDSIVPNGRYTDIGRALDTVWEIQEKRKDNNRHKVLLLVTDLEHDAPLTSKYRGKQRSFQSPYLVRARRVKHDNWYEITLDMAVHDRVAHTARELYRSIAAAHSKRPTPTPPAKESSPRYTPSLD
Does B1 bind?
Result: binds
